{
  "source": "patent US6359194",
  "about": "(Takeda / Millennium, dated 2002)",
  "binders": {"B1": {"name": "GAL4 transcriptional activation domain alone (other, UniProt P04386 768-881, looked up)", "chain": "ANFNQSGNIADSSLSFTFTNSSNGPNLITTQTNSQALSQPIASSNVHDNFMNNEITASKIDDGNNSKPLSPGWTDQTAYNAFGITTGMFNTTTMDDVYNYLFDDEDTPPNPKKE", "notes": "Two-hybrid control; also called GAL4 AD alone; GAL4 AD"}, "B2": {"name": "fchd540 protein fused to a flag peptide (transfected 293 cells or BAECs) (other, human, UniProt O15105 1-426, looked up)", "chain": "MFRTKRSALVRRLWRSRAPGGEDEEEGAGGGGGGGELRGEGATDSRAHGAGGGGPGRAGCCLGKAVRGAKGHHHPHPPAAGAGAAGGAEADLKALTHSVLKKLKERQLELLLQAVESRGGTRTACLLLPGRLDCRLGPGAPAGAQPAQPPSSYSLPLLLCKVFRWPDLRHSSEVKRLCCCESYGKINPELVCCNPHHLSRLCELESPPPPYSRYPMDFLKPTADCPDAVPSSAETGGTNYLAPGGLSDSQLLLEPGDRSHWCVVAYWEEKTRVGRLYCVQEPSLDIFYDLPQGNGFCLGQLNSDNKSQLVQKVRSKIGCGIQLTREVDGVWVYNRSSYPIFIKSATLDNPDSRTLLVHKVFPGFSIKAFDYEKAYSLQRPNDHEFMQQPWTGFTVQISFVKGWGQCYTRQFISSCPCWLEVIFNSR", "notes": "Co-immunoprecipitation construct; not shown: flag peptide (different from that on rchd534)"}, "B3": {"name": "rchd534 protein fused to a flag peptide (transfected 293 cells or BAECs) (other, human, UniProt O43541-2 1-235, looked up)", "chain": "MSRMGKPIETQKSPPPPYSRLSPRDEYKPLDLSDSTLSYTETEATNSLITAPGEFSDASMSPDATKPSHWCSVAYWEHRTRVGRLYAVYDQAVSIFYDLPQGSGFCLGQLNLEQRSESVRRTRSKIGFGILLSKEPDGVWAYNRGEHPIFVNSPTLDAPGGRALVVRKVPPGYSIKVFDFERSGLQHAPEPDAADGPYDPNSVRISFAKGWGPCYSRQFITSCPCWLEILLNNPR", "notes": "Co-immunoprecipitation construct; also called Smad6; not shown: flag peptide for immunoprecipitation"}},
  "key": {"[1]": {"biological_target": "T1, GAL4 DNA-binding domain-fchd540 fusion (human, UniProt P04386 1-147; O15105 1-426)", "T1 construct": "Yeast two-hybrid bait; also called fchd540 bait protein; pGBT9-fchd540", "experiment": "yeast two-hybrid mating assay (HIS3 and lacZ reporters)", "source_text": "(§1) Yeast expression plasmids encoding the GAL4 DNA-binding domain either alone or fused in frame to fchd540, rchd534, Drosophilia MAD, DPC4, or p53 were transformed into MATa two-hybrid screening strain HF7c. Yeast expression plasmnids encoding the GAL4 transcriptional activation domain alone and GAL4 activation domain fusions to rchd534 and SV40 were transformed into MATα two-hybrid screening strain Y1 87. p53 and SV40 interact with each other and should not interact with the experimental proteins. The HF7c transformants were propagated as stripes on semisolid synthetic complete medium lacking L-tryptophan and the Y187 transformants were grown as stripes on semisolid synthetic complete medium lacking L-leucine. Both sets of stripes were replica plated in the form of a grid onto a single rich YPAD plate and the haploid strains of opposite mating types were allowed to mate overnight at 30° C. The yeast strains on the mating plate were then replica plated to a synthetic complete plate lacking L-leucine and L-tryptophan to select for diploids and incubated at 30° C. overnight. Diploid strains on the synthetic complete plate lacking L-leucine and L-tryptophan were replica plated to a synthetic complete plate lacking L-leucine, L-tryptophan, and L-histidine to assay HIS3 expression and a paper filter on a synthetic complete plate lacking L-leucine and L-tryptophan. The next day the paper filter was subjected to the paper filter beta-galactosidase assay to measure expression of the lacZ reporter gene. HIS3 expression was scored after 3 days of growth at 30° C.\n(§2) It was confirmed that these rchd534 cDNAs encode proteins that physically interact specifically with fchd540. Yeast expression plasmids encoding the GAL4 DNA-binding domain either alone or fused in frame to fchd540, rchd534, Drosophila MAD, DPC4, and p53 were transformed into MATa two-hybrid screening strain HF7c. Yeast expression plasmids encoding the GAL4 transcriptional activation domain (GAL4 AD) alone and GAL4 activation domain fusions to tchv03a, tchvR4A and SV40 were transformed into MATα two-hybrid screening strain Y1 87. p53 and SV40 interact with each other and should not interact with the experimental proteins. The HF7c transformants were propagated as stripes on semi-solid synthetic complete medium lacking […]."}, "[2]": {"biological_target": "T2, GAL4 DNA-binding domain alone (UniProt P04386 1-147)", "T2 construct": "Two-hybrid control", "experiment": "yeast two-hybrid mating assay (HIS3 and lacZ reporters)", "source_text": "as §1, §2"}, "[3]": {"biological_target": "T3, GAL4 DNA-binding domain fusion to rchd534 (human, UniProt P04386 1-147; O43541 1-235, limits assumed)", "T3 construct": "Yeast two-hybrid bait; also called rchd534 bait protein", "experiment": "yeast two-hybrid mating assay (HIS3 and lacZ reporters)", "source_text": "as §1, §2"}, "[4]": {"biological_target": "T4, GAL4 DNA-binding domain fusion to Drosophila MAD (Drosophila, UniProt P04386 1-147; P42003 1-455, limits assumed)", "T4 construct": "Yeast two-hybrid bait; also called Dros; MAD; MAD bait protein", "experiment": "yeast two-hybrid mating assay (HIS3 and lacZ reporters)", "source_text": "as §1, §2"}, "[5]": {"biological_target": "T5, GAL4 DNA-binding domain fusion to DPC4 (UniProt P04386 1-147; Q13485 1-552, limits assumed)", "T5 construct": "Yeast two-hybrid bait; also called DPC4 bait protein", "experiment": "yeast two-hybrid mating assay (HIS3 and lacZ reporters)", "source_text": "as §1, §2"}, "[6]": {"biological_target": "the molecule itself", "experiment": "co-immunoprecipitation from transfected 293 cells or BAECs", "protocol": "(§3) The interaction of the rchd534 and fchd540 proteins, observed in yeast cells as described above, was tested in mammalian endothelial cell tissue culture. Either bovine aortic endothelial cells (BAECs) or 293 cells (human embryonic kidney cells, ATCC Accession No. CRL-1573) were transfected with constructs encoding both the rchd534 and fchd540 proteins, each fused to a different flag peptide allowing for specific immunoprecipitation. […] The co-immunoprecipitation of rchd534 and fchd540 further supports that these proteins interact in human cells that are physiologically relevant to cardiovascular disease."}, "[7]": {"biological_target": "B2", "experiment": "co-immunoprecipitation, BAECs against 293 cells, equal amounts of protein", "protocol": "as §3\nThe ability of the rchd534 and fchd540 proteins to interact with themselves and with other protein members of the TGF-β signalling pathway (MADR1, MADR2, DPC4, TbR1, TSR1, ActR1b, ALK3, ALK6), was tested using this co-inmunoprecipitation method. Each gene was transfected alone and in various combinations with other TGF-β pathway genes in either 293 cells or BAECs. The rchd534 protein formed homodimers in 293 cells and BAECs. […] As mentioned above, the rchd534 and fchd540 proteins formed heterodimers in 293 cells and BAECs. This interaction is about 50 fold stronger in BAECs than 293 cells based on equal amounts of protein."}},
  "data": [
    {"binder": "B1", "values": [
      {"measurement": "binding result", "setting": "[1]", "result": "no binding"},
      {"measurement": "binding result", "setting": "[2]", "result": "no binding"},
      {"measurement": "binding result", "setting": "[3]", "result": "no binding"},
      {"measurement": "binding result", "setting": "[4]", "result": "no binding"},
      {"measurement": "binding result", "setting": "[5]", "result": "no binding"}
    ]},
    {"binder": "B2", "values": [
      {"measurement": "binding result", "setting": "[6]", "result": "no binding"}
    ]},
    {"binder": "B3", "values": [
      {"measurement": "fold stronger interaction in BAECs than in 293 cells", "setting": "[7]", "result": "~50", "unit": "fold"}
    ]}
  ]
}
